The values that follow come from patent publication US20230212635.

Data set [1] deals with C3b (UniProt P01024).
For data set [2], the target named is C3b, P01024.
Sequence of C3b, P01024 (P01024 whole entry, looked up): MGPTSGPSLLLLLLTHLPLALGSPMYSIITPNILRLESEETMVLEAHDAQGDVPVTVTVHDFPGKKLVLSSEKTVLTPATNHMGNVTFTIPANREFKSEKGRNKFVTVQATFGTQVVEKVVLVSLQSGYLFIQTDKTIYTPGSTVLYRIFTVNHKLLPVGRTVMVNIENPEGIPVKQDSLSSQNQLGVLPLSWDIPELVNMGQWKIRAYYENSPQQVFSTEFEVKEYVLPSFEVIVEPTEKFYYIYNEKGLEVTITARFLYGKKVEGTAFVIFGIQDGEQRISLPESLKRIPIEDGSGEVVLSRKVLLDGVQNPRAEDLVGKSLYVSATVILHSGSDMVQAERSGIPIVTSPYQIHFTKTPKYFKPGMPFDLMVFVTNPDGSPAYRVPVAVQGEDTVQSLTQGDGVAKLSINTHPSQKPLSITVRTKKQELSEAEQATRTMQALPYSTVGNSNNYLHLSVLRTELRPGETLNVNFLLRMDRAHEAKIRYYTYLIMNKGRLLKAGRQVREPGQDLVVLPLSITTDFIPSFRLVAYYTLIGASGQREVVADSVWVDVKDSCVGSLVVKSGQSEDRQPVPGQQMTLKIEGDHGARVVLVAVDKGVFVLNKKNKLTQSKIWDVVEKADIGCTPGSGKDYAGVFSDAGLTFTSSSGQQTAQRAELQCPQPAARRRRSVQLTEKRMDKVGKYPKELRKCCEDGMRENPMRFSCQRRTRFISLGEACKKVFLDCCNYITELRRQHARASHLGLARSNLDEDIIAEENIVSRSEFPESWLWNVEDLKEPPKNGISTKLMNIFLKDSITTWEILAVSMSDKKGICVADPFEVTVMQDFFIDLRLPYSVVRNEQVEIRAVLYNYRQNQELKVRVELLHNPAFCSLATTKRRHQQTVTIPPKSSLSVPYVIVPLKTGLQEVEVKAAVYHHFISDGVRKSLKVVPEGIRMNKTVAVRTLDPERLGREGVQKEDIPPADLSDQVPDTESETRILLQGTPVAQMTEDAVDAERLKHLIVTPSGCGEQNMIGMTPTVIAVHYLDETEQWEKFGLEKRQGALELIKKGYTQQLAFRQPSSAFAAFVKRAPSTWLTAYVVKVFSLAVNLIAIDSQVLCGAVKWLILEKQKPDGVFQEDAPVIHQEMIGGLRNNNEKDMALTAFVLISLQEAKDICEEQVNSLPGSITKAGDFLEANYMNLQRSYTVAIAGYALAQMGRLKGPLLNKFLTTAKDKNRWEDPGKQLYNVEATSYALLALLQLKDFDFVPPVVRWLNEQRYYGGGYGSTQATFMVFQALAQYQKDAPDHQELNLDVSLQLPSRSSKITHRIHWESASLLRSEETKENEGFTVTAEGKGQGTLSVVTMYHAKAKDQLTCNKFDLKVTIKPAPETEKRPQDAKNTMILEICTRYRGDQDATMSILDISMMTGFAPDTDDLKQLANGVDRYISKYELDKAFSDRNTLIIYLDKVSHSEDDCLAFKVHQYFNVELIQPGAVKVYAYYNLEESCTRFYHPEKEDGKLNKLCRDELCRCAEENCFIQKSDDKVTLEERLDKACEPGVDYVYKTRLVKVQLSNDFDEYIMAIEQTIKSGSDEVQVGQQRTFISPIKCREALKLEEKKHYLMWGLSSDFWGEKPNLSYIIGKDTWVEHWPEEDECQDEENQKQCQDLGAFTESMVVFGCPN

With “recombinant mature Complement Factor I from the pDEF-CFI vector in CHO-K1 cells (first Mono S peak)”, the “fluid phase cofactor activity (C3b cleavage with Factor H, SDS-PAGE, Coomassie)” value (“fluid phase cofactor activity” below) in data set [1] was “At 30 minutes the lowest concentration of fully processed factor I (6.25ng) (right) had cleaved C3b as evidenced by decrease in C3α -110 band and increase in C3α-68,-46, and -43 bands”.

Turning to “recombinant mature Complement Factor I produced from the Furin-IRES-CFI vector (VB171219-1127wqz) in HEK293T cells”, the “fluid phase cofactor activity” value in data set [1] was “Enzymatic activity of IRES CFI and serum CFI was demonstrated to be equivilant”.

In the case of “recombinant precursor Complement Factor I (single chain with intact RRKR linker)”, the “fluid phase cofactor activity” value in data set [1] was “by 45 minutes 10ng of precursor CFI showed no demonstrable activity”.

B1: serum purified Complement Factor I (Complement Technology, A138) (protein)
chain: KVTYTSQEDLVEKKCLAKKYTHLSCDKVFCQPWQRCIEGTCVCKLPYQCPKNGTAVCATNRRSFPTYCQQKSLECLHPGTKFLNNGTCTAEGKFSVSLKHGNTDSEGIVEVKLVDQDKTMFICKSSWSMREANVACLDLGFQQGADTQRRFKLSDLSINSTECLHVHCRGLETSLAECTFTKRRTMGYQDFADVVCYTQKADSPMDDFFQCVNGKYISQMKACDGINDCGDQSDELCCKACQGKGFHCKSGVCIPSQYQCNGEVDCITGEDEVGCAGFASVTQEETEILTADMDAERRRIKSLLPKLSCGVKNRMHIRRKRIVGGKRAQLGDLPWQVAIKDASGITCGGIYIGGCWILTAAHCLRASKTHRYQIWTTVVDWIHPDLKRIVIEYVDRIIFHENYNAGTYQNDIALIEMKKDGNKKDCELPRSIPACVPWSPYLFQPNDTCIVSGWGREKDNERVFSLQWGEVKLISNCSKFYGNRFYEKEMECAGTYDGSIDACKGDSGGPLVCMDANNVTYVWGVVSWGENCGKPEFPGVYTKVANYFDWISYHVGRPFISQYNV
For B1, in data set [2], the “fluid phase cofactor activity” value was “Enzymatic activity of IRES CFI and serum CFI was demonstrated to be equivilant”.
